Test results: paper PMC11366018

The substances below were run against S2A4 (human) (assay: BLI).
S2A4 (human), sequence (heavy, as listed by the source, chain 1 of 2): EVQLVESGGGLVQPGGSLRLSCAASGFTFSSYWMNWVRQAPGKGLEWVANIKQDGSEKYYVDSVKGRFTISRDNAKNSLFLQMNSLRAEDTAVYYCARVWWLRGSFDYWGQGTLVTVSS
S2A4 (human), sequence (light, as listed by the source, chain 2 of 2): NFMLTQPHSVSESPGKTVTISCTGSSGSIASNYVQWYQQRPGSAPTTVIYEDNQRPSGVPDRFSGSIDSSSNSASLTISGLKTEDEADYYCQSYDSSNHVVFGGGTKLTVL

Row | Substance | Kd [nM]
1 | Omicron-(L371S+F375S) RBD (from UniProt P0DTC2 319-541) (domain or fragment) | 75.2
2 | Omicron-(L371S+P373S) RBD (from UniProt P0DTC2 319-541) (domain or fragment) | 89.4
3 | Omicron-(P373S+F375S) RBD (from UniProt P0DTC2 319-541) (domain or fragment) | 38.6
